Where a chain is given by its changes, count along the chain named.
B1: ATX-P-439 (antibody, human IgG1, kappa, N297A, V domains shown)
VH: not shown
VL: DIQMTQSPSSVSASVGDRVTITCRASQGISSWLAWYQQKPGKAPKLLIYAASSLQSGVPSRFSGSGSGTDFTLTISSLQPEDFATYYCQQANSFPWTFGQGTKVDIKR
notes: Full chains (VH + hIgG1-Agly-Fc)
B2: ATX-P-442 (antibody, human IgG1, kappa, N297A, V domains shown)
VH: QITLKESGPTLVKPTQTLTLTCTFSGFSLSTSGVGVGWIRQPPGKALEWLALIYWNDDKRYSPSLKSRLTITKDTSKNLVVLTMTNMDPVDTATYYCARDYGDYWFFDLWGRGTPVTVSS
VL: B1 VL with V11L, W32Y, A91S, N92F, F94T, W96L, Q100G, V104L, D105E
notes: as for B1
B3: ATX-P-445 (antibody, human IgG1, kappa, N297A, V domains shown)
VH: EVQLVESGGGLVQPGGSLRLSCAASGFTFSSHDMHWVRQVTGKGLEWVSGIDPAGDTYYPDSVKGRFTISRENAKNSLYLQMNSLRAGDTAVYYCTRGEASSSSEDAFDIWGQGTMVTVSS
VL: not shown
notes: as for B1
B4: ATX-P-425 (antibody, human IgG1, kappa, N297A, V domains shown)
VH: EVQLVESGGGLVKPGGSLRLSCAASGFTFSTYSMNWVRQAPGKGLEWVSSITSSSSYMFYADSVMGRFTISRDNAKNSLYLQMNSLRAEDTADYYCARDSNWGEAFDIWGQGTMVTVSS
VL: DIQMTQSPSSLSASVGDRVTITCRASQGIRIDLGWFQQKPGKAPKRLIYAASSLPSGVPSRFSGSGSGTEFTLTISSLQPEDFATYYCLQHNSYPWTFGQGTKVEIKR
notes: as for B1
B5: ATX-P-423 (antibody, human IgG1, kappa, N297A, V domains shown)
VH: QVQLVESGGGVVQPGRSLRLSCAASGFTFSSYGMHWVRQAPGKGLEWVSHITYDGSDKYYGDSVKGRFTISRDNSKNTLYLQMNSLRAEDTAVYYCAKDGYSSGWWYFDYWGQGTLVTVSS
VL: B4 VL with I31N, F36Y, P55Q, T72A, W96L, Q100G, V104L
notes: as for B1
B6: ATX-P-424 (antibody, human IgG1, kappa, N297A, V domains shown)
VH: EVQLVESGGGLVKPGGSLRLSCAASGFTFSSYSMNWVRQAPGKGLEWVSSITSSSYIFYADSLKGRFTISRDNAKNSLFLQMNSLRAEDTAVYYCARDSNWGEAFDIWGQGTMVTVSS
VL: B4 VL with I31N, F36Y, T85I
notes: as for B1
B7: ATX-P-427 (antibody, human IgG1, kappa, N297A, V domains shown)
VH: EVQLVESGGGVVRPGGSLRLSCAASGFSFDDYGMSWVRQVPGKGLEWVSGINWNGGSTGYADSVKGRFTISRDNAKNSLYLQMSSLRAEDTALYYCASYSGSFRDAFDIWGQGTMVTVSS
VL: AIQMTQSPSSLSASVGDRVTITCRASQGIRNDLGWYQQKPGKAPKLLIYAASSLQSGVPSRFSGSGSGTDFTLTISSLQPEDFATYYCLQDYNYPYTFGQGTKLEIKR
notes: as for B1
B8: ATX-P-448 (antibody, human IgG1, kappa, N297A, V domains shown)
VH: QVQLVESGGGVVQPGRSLRLSCAASGFPFSSYGMHWVRQAPGKGLEWVAVMSYDGINGYYADSVKGRFTISRDNSKNTLYLQMNSLRAEDTAVYYCARLVYADDAFDIWGQGTTVTVSS
VL: EIVLTQSPATLSLSPGERATLSCRASQSVSSYLAWYQQKPGQAPRLLIYDASNRATGIPARFSGSGSGTDFTLTISSLEPEDFAVYYCQQRSNWPLTFGGGTKVEIKR
notes: as for B1
B9: ATX-P-440 (antibody, human IgG1, kappa, N297A, V domains shown)
VH: EVQLVESGGGVVRPGGSLRLSCAASGFTFDDYGMSWVRQAPGKGLEWVSTINWNGGNTGYADSVKGRFTISRDNAKNSLYLQMNSLRAEDTALYYCARDEGAAGLGYYFDYWGQGTLVTVSS
VL: DIQMTQSPSTLSASVGDRVTITCRASQSISSWLAWYQQKPGKAPKLLIYATSSLQSGVPSRFSGSGSGTDFTLTISSLQPEDFATYYCQQSYSTPITFGQGTRLEIKR
notes: as for B1
B10: ATX-P-432 (antibody, human IgG1, kappa, N297A, V domains shown)
VH: QVQLVQSGAEVKKPGASVKVSCKASGYTFTDYYIHWVRQAPGPGLEWLGWINPNTGATKYAQKFQGRVTMTRDTSISTAYMELSRLRSDDTAVYYCAREDNGNYGDVFDIWGQGTMVTVSS
VL: not shown
notes: as for B1

What was measured:
[1] = biological target: T1, muANGPTL7-his (R&D Systems) (mouse, UniProt Q8R1Q3 22-337, limits assumed); assay: BLI Octet HTX; IgG on AHC sensor; muANGPTL7-his at 200 nM; 1:1 fit
T1 construct: Bought protein; also called mouse ANGPTL7 protein
T1 sequence (looked up): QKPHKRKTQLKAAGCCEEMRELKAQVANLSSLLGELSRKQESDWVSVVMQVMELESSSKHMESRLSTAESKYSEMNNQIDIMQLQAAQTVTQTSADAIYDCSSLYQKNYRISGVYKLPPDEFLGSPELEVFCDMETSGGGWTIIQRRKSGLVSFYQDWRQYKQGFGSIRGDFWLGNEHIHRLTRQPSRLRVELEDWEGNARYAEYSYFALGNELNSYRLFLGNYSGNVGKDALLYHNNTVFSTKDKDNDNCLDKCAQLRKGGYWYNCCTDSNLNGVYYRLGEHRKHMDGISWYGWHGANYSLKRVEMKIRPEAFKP
Procedure: (§1) Experiments were also conducted to determine the reactivity and dissociation constants (KD) of anti-ANGPTL7 antibodies with the mouse ANGPTL7 protein. Binding experiments were performed on Octet HTX (ForteBio) in 1×PBS, pH 7.4, 0.1 mg/mi BSA, 0.05% Sodium Azide, and 0.02% Tween 20. Antibodies at a concentration of 50 nM were loaded on pre-hydrated AHC biosensors for 5 mA. The loaded sensors were dipped into monovalent muANGPTL7-his (R&D Systems) at a concentration of 200 nM for 5 min of association, followed by 10 min of dissociation. […] Responses (nm) at the end of association were also determined (Table 5).

[2] = biological target: T2, P66 (rabbit ANGPTL7-his) (rabbit, UniProt G1T4P1 27-344); assay: BLI Octet HTX; IgG on AHC sensor; P66 at 200 nM; 1:1 fit
T2 construct: mature; also called rabbit ANGPTL7 protein
T2 sequence: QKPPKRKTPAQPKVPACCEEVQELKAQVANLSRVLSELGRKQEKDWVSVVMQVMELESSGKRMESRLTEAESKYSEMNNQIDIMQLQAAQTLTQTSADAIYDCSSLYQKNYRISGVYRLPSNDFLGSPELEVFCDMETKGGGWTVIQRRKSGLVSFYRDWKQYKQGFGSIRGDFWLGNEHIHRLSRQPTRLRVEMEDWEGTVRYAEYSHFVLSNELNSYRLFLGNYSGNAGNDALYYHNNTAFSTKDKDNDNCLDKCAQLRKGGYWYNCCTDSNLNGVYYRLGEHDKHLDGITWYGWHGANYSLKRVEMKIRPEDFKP
Procedure: as §1, with “([…])” for “(KD)”, “rabbit” for “mouse”, “Rx PBS,” for “1×PBS,”, “min.” for “mA.”, “P66 (rabbit ANGPTL7-his)” for “muANGPTL7-his (R&D Systems)”, “6).” for “5).”

[3] = biological target: T3, P60 (huANGPTL7-Fibrinogen-his) (human, UniProt O43827 129-343); assay: BLI Octet HTX; IgG on AHC sensor; P60 at 200 nM; 1:1 fit
T3 construct: also called human ANGPTL7 fibrinogen domain; not shown: C-terminal short linker and His tag
T3 sequence: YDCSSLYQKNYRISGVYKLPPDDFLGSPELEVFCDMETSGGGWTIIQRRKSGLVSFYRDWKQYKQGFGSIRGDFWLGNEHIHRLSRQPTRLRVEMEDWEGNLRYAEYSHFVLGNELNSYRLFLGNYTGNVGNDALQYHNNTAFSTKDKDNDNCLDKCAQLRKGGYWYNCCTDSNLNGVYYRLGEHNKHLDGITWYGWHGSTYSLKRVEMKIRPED
Procedure: (§2) ANGPTL7 Antibody Kinetics. Experiments were conducted to determine the reactivity and dissociation constants (KD) of anti-ANGPTL7 antibodies with the human fibrinogen domain of the ANGPTL7 protein. Binding experiments were performed on Octet HTX (ForteBio) in 1×PBS, pH 7.4, 0.1 mg/ml BSA, 0.05% Sodium Azide, and 0.02 Tween 20. Antibodies at a concentration of 50 nM were loaded on pre-hydrated AHC biosensors for 5 min. The loaded sensors were dipped into monovalent P60 (huANGPTL7-Fibrinogen-his) at a concentration of 200 nM for 5 min association, followed by 10 min dissociation. […] Responses (nm) at the end of association were also determined (Table 2).

[4] = biological target: T4, Pext-01 (huANGTPL7-FLAG multimer) (human, UniProt O43827 27-346); assay: BLI Octet HTX; IgG on AHC sensor; Pext-01 at 100 nM; 1:1 fit; apparent KD
T4 construct: also called PExt-1; human wild type ANGPTL7 multimer; not shown: FLAG tag
T4 sequence: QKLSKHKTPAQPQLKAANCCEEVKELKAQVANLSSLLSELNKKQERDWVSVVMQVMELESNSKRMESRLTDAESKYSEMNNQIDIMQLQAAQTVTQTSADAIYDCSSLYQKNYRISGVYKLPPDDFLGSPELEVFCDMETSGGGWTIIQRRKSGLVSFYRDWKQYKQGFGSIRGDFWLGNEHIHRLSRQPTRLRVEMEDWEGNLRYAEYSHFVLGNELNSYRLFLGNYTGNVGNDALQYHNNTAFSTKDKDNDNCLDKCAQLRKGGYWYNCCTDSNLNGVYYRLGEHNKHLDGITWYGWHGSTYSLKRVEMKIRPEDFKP
Procedure: Experiments were also conducted to determine the reactivity and dissociation constants (KD) of anti-ANGPTL7 antibodies with the human ANGPTL7 multimer protein. Binding experiments were performed on Octet HTX (ForteBio) in 1×PBS, pH 7.4, 0.1 mg/ml BSA, 0.05% Sodium Azide, and 0.02% Tween 20. Antibodies at a concentration of 50 nM were loaded on pre-hydrated AHC biosensors for 5 mi. The loaded sensors were dipped into Pext-01 (huANGTPL7-FLAG) at a concentration of 100 nM for 5 min of association, followed by 10 min of dissociation. […] Responses (nm) at the end of association were also determined (Table 7).

[5] = biological target: T1, muANGPTL7-his (R&D Systems); assay: BLI Octet HTX; IgG on AHC sensor; muANGPTL7-his at 200 nM
Procedure: as §1

[6] = biological target: T3, P60 (huANGPTL7-Fibrinogen-his); assay: BLI Octet HTX; IgG on AHC sensor; P60 at 200 nM
Procedure: as §2

Binder	Response [1] [nm]	Kd [2] [nM]	Response [2] [nm]	Response [3] [nm]	Kd [4] [nM]	Response [4] [nm]	Kd [3] [nM]	binding result [5]	binding result [6]	Kd [1] [nM]
B1	0.53	2.95	0.92	0.28	12.8	0.87				
B2	0.32	3.38	0.95	0.69			4.62			
B3	0.01			0.12		0.8		no binding (tested: 200 nM)	no binding (tested: 200 nM)	
B4		2.38	0.95			0.83	305			
B5	0.14	6.69	1.02			0.87	18.3	no binding (tested: 200 nM)		
B6	0.14	4.65	0.93			0.76	106	no binding (tested: 200 nM)		
B7	0.48	3.21	0.93	0.5		0.82	65.1			10.3
B8	0.69	0.949	0.75			0.58	4.69			
B9	0.21	6.27	0.57			0.61	55.8			55.3
B10	0.03							no binding (tested: 200 nM)		

Reference: patent US20250296996A1 (BROADWING BIO, published 2025)
